Results reported in patent US20040005647A1 (University of California, published 2004).
Where “and” joins values, the source holds several entries; their conditions need not be identical. Equal values may be shown once.

What was measured:
[1] = target: T1, MUC-1 antigen expressed on MCF-7 human breast adenocarcinoma cells (human, UniProt P15941 24-1255); assay: competitive ELISA regression, second experiment
T1 construct: whole, on cells; Scatchard analysis and immunocytochemistry used MCF-7 cells; also called MUC-1 mucin; MUC-1 membrane antigen
Description: (§1) Competitive ELISA analysis was performed in triplicate at each concentration. Incubations were carried out at 37EC for 1.5 hrs. Following each incubation, the plates were washed with PBS pH 7.4 containing 0.5% Tween 20 followed by PBS washes alone. Pro-Bind™ ELISA assay plates (Becton Dickinson Labware, Franklin Lakes, N.J.) were coated overnight at room temperature with the MCF-7 cell lysate (200 μg/well) in 15 mM sodium bicarbonate buffer pH 9.6. The ELISA plates were rinsed with PBS and blocked with PBS containing 3.0% dried non-fat milk for 1 hr. at room temperature. Ten percent bovine serum albumin (BSA) was used as a negative control. In a separate plate, soluble scFv containing 10% Tween 20 were prepared and stored on ice for 15 minutes. MCF-7 cell Tysate used as the competitor was diluted in 3% non-fat milk to provide the following concentrations 100 nM, 10 nM and 1 nM. The soluble scFv was transferred to the ELISA plate and incubated with the competitor. 100 μl of anti-E-tag diluted 1:250 in 3% non-fat milk solution was added to the wells and the plate incubated. The plate was developed with 2,2′-Amino-bis-3-ethylbenzthiazoline-6-sulfonic acid (ABTS) (Sigma-Aldrich, St. Louis, Mo.) containing 0.3% H₂O₂. The plate was read using a microplate reader at an absorbency of A₄₀₅ nM (Dynex, Chantilly, Va.). Data was generated from three separate trials and analyzed.

[2] = target: T1, MUC-1 antigen expressed on MCF-7 human …; assay: competitive ELISA: scFv on plated MCF-7 lysate, soluble MCF-7 lysate (MUC-1) as competitor at 1 nM
Description: as §1

[3] = target: T1, MUC-1 antigen expressed on MCF-7 human …; assay: competitive ELISA regression, third experiment (not statistically significant)
Description: as §1

[4] = target: T1, MUC-1 antigen expressed on MCF-7 human …; assay: competitive ELISA regression, estimates of single experiments
Description: as §1

[5] = target: T1, MUC-1 antigen expressed on MCF-7 human …; assay: linear regression of competitive ELISA data
Description: as §1

[6] = target: T1, MUC-1 antigen expressed on MCF-7 human …; assay: immunohistochemistry on a section of the same prostate cancer; biotinylated anti-mouse antibody and colour reagent
Description: FIG. 4 illustrates staining of prostate cancer using three of the scFv described herein. The scFv is placed on the tissue on the slide and then washed off followed with a biotinylated anti mouse antibody for reaction with any bound scFv and then with a color reagent.

[7] = target: T1, MUC-1 antigen expressed on MCF-7 human …; assay: Scatchard analysis, 125I-12E scFv on MCF-7 cells with unlabeled competitor; 25 kD fraction, monovalent
[8] = target: T1, MUC-1 antigen expressed on MCF-7 human …; assay: Scatchard analysis, 125I-12E scFv on MCF-7 cells with unlabeled competitor; 42 kD fraction, diabody (divalent)

T1 sequence (P15941 24-1255): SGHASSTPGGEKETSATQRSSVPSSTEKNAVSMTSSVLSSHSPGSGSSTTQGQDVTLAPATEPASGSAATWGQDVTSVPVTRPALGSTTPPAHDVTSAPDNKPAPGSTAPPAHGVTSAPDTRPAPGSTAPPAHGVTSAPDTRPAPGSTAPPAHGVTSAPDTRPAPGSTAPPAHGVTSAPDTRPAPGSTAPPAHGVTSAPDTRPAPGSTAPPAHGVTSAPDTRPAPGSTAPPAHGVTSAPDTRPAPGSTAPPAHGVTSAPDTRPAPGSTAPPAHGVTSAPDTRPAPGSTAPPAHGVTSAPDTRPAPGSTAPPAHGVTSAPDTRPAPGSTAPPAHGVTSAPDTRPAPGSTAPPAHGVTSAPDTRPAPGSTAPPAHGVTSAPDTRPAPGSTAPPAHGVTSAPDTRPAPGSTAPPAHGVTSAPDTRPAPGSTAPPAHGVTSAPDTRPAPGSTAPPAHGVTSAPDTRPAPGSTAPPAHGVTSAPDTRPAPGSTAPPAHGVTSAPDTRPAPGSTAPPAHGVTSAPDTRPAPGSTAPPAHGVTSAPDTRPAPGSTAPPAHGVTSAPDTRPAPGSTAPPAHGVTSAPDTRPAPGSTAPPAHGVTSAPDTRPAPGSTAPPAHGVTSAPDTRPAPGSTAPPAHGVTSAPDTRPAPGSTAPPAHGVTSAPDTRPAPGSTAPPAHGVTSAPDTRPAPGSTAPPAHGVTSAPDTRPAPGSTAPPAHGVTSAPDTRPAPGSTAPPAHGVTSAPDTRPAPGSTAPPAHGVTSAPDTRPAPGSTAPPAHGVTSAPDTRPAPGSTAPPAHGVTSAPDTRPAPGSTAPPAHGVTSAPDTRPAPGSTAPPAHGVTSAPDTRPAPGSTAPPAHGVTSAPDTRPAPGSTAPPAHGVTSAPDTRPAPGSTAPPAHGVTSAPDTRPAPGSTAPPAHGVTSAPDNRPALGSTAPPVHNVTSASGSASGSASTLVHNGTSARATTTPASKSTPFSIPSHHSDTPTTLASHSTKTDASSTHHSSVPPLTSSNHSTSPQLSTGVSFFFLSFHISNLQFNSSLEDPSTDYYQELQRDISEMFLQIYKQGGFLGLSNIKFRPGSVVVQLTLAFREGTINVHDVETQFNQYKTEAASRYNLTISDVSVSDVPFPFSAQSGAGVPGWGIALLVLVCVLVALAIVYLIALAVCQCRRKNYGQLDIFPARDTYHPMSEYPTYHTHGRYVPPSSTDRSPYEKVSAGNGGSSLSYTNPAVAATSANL

B1: anti-MUC-1 C4 scFv (scFv)
scFv: QVQLQESGPGLVQPSQSLSITCTVSGFSLTAYGVHWIRQSPGKGLEWLGVIWSGGGTDYNPAFISRLNINKDNSKSQVFFKVDSLQLDDRGIYYCVRRNGYFFDSWGQGTTVTVSSSGRFSGGGSGGGGSDIELTQSPASLLCLWGRGPPSHAGPTMVVSTSGYNFIYWSQQKPGQSPKLLIYLSSNLESGVPARVSGSGSRTYFTLNIHPVEEEDAATFYCRHTRELPCTFGGRTKLEIKRAAAGAPVPYPDPLEPRAA
- Ka [1]: 2.3e+08 M⁻¹
- percent inhibition of binding with 1 nM of competitor [2]: 94%
- Ka [3]: 1.01e+09 M⁻¹

B2: anti-MUC-1 3D scFv (scFv, V domains shown)
VH: QVKLQESGPEVVKPGASVKLSCKASGYIFTSYDIDWVRQTPEQGLEWIGWIFPGEGSTEYNEKFKGRATLSVDKSSSTAYMELTRLTSEDSAVYFCARGDYYRRYFDLWGQGTTVTVSS
notes: After the linker stands a short composite of N- and C-terminal pieces of a VL, with no light-chain loops; also called clone 3D
- Ka [4]: 1.2e+08 to 1.5e+08 M⁻¹
- Ka [5]: 2.2e+08 M⁻¹ and > 1e+08 M⁻¹
- percent inhibition of binding with 1 nM of competitor [2]: 50%

B3: B5 scFv (scFv)
scFv: MAQVKLQESGAELVRPGASVTLSCKASGYTFTDYEMHWVKQTPVHGLEWIGAIDPETGGTAYNQKFKGKATLTADKSSSTAYMELRSLTSEDSAVYYCTRDGYYAWFAYWGQGTTVTVSSGGGGLGGGGSGGGGSDIELTQSPAIMSASPGERVTMTCSASSSIRYIYWYQQKPGSSPRLLIYDTSNVAPGVPFRFSGSGSGTSYSLTINRMEAEDAATYYCQEWSGYPYTFGGGTKLELKRAAAGAPVPYPDPLEPRAA
notes: The sheet prints only the panel letter G
- binding result [6]: binds

B4: anti-MUC-1 12E scFv (scFv)
scFv: QVKLQQSGTEVVKPGASVKLSCKASGYIFTSYDIDWVRQTPEQGLEWIGWIFPGEGSTEYNEKFKGRATLSVDKSSSTAYMELTRLTSEDSAVYFCARGDYYRRYFDLWGQGTTVTVSSRGGGSGGGGSGGGGSDIELTQSPAIMSASPGERVTMTCSASSSIRYIYWYQQKPGSSPRLLIYDTSNVAPGVPFRFSGSGSGTSYSLTINRMEAEDAATYYCQEWSGYPYTFGGGTKLELKRAAAGAPVPYPDPLEPRAA
notes: As printed it begins with a vector leader and ends with the E-tag; Mouse scFv from pCANTAB 5E, expressed in E. coli; also called clone 12E
- Ka [5]: 1.7e+08 M⁻¹ and > 1e+08 M⁻¹
- percent inhibition of binding with 1 nM of competitor [2]: 50%

B5: 125I-anti-MUC-1 12E scFv, 25 kD fraction (monovalent) (scFv)
scFv: B4 scFv
modifications: 125I-labelled (Chloramine T method)
notes: HPLC (SEC-2000) fraction of iodinated 12E scFv, representative of the monovalent scFv; also called monomeric form of the 12E scFv
- Ka [7]: 8.6e+07 M⁻¹

B6: 125I-anti-MUC-1 12E scFv, 42 kD fraction (divalent, considered a diabody) (scFv)
scFv: B4 scFv
modifications: 125I-labelled (Chloramine T method)
notes: HPLC (SEC-2000) fraction of iodinated 12E scFv, considered to be a diabody (divalent); also called bivalent form of the 12E scFv
- Ka [8]: ~1.7e+08 M⁻¹
